Results published in PMC9080447 (Biochemistry, 2021).

Key:
Assay in all cases: native MS
[1] = target: His6-tagged Salmonella FrlB E224Q/H240N (Salmonella)
[2] = target: wild-type Salmonella FrlB deglycase (Salmonella)
native MS = target: the molecule itself

His6-tagged Salmonella FrlB E224Q/H240N (enzyme)
stoichiometry N [1]: 2

wild-type Salmonella FrlB deglycase (enzyme)
stoichiometry N [2]: 2

B1: His6-tagged Salmonella YidA (enzyme, UniProt A0A0F6B8Z9 1-281, looked up)
chain: MAIKLIAIDMDGTLLLPDHTISPAVKNAIAAAREKGVNVVLTTGRPYAGVHSYLKELHMEQPGDYCITYNGALVQKAGDGSTVAQTALSYDDYRYLEKLSREVGSHFHALDRNTLYTANRDISYYTVHESYVATIPLVFCEAEKMDPNTQFLKVMMIDEPAVLDRAIARIPAEVKEKYTVLKSAPYFLEILDKRVNKGTGVKSLVEALGIKPEEVMAIGDQENDIAMIEYAGMGVAMDNAIPSVKEVANFVTKSNLEDGVAWAIEKFVLNPDHSSGHFPAR
stoichiometry N (native MS): 2
